The text below walks through data of US20200239555A1 (STATEN BIOTECHNOLOGY B V, published 2020).

Experiment [1] addresses T1, native human ApoC3 (human, UniProt P02656 21-99).
T1 construct: also called nhuApoC3; native huApoC3
The experiment can be described thus: SPR, IgG1 over ApoC3 on CM5 chip, pH 5.5. As to the method: (§1) Based on the results in Example 1, test scFv-Fc antibodies were generated as human IgG₁ antibodies. An SPR-based assay was employed, in which human ApoC3 protein was immobilized on a CM5 chip, and the binding kinetics of test antibodies to the coated chip were measured at both pH 7.4 and pH 5.5. Briefly, a solution of 50 μg/ml of native human ApoC3 in 10 mM acetate buffer at pH 4.5 was prepared and injected until the surface density reached approximately 500 RU. 60 μl of each test antibody was diluted in HBS-EP buffer (GE, cat. nr. BR-1008-26; 0.010 M HEPES, 0.150M NaCl, 3 mM EDTA, 0.05% (v/v) surfactant P20, pH 7.4), and was injected at a concentration as described in Table 9. The test antibodies were passed through the flow cells at a flow rate of 30 μl/min, followed by an off-rate wash at pH 7.4 or pH 5.5 for 5 min. The resulting sensorgrams were analyzed using the BIAevaluation 4.1 software applying the Langmuir 1:1 binding model to derive binding kinetics. Data was zero adjusted and the reference cell sensorgrams were subtracted.
Background: SPR reads the build-up and loss of mass on a sensor chip optically.

Experiment [2] addresses T1, native human ApoC3. The experiment can be described thus: SPR, IgG1 over ApoC3 on CM5 chip, pH 7.4. How it is done:
as §1

The target of experiment [3] is T2, biotinylated native human ApoC3 (human, UniProt P02656 21-99, biotinylated (site not stated)).
T2 construct: also called biotinylated human ApoC3
The experiment can be described thus: SPR, IgG1 over biotinylated ApoC3 on SA chip, pH 5.5. How it is done:
(§2) Biotinylated native human ApoC3 was captured on a streptavidin coated SPR chip (GE Healthcare, cat. nr. BR100032) at pH 7.4, in accordance with the method provided by Biacore, by injection of 20 μl 10 μg/ml biotinylated native human ApoC3 reaching the surface density of approximately 500 RU. 60 μL of test antibody in 1-50 nM range diluted in HBS-EP buffer (GE, cat # BR-1008-26; 0.010 M HEPES, 0.150M NaCl, 3 mM EDTA, 0.05% (v/v) surfactant P20, pH 7.4) was injected and passed through the flow cells at a flow rate of 30 μl/min, followed by an off-rate wash at pH7.4 for 5 min. After the dissociation, the flow cell surfaces were regenerated by injecting 10 μl of 10 mM NaOH/1 M NaCl and 10 μl of 10 mM glycine at pH1.5. The assay was repeated at pH5.5 using the same general protocol, where the running and sample dilution buffer was replaced by a HBS-EP buffer supplemented with citrate buffer to 10 mM final concentration and pH adjusted to 5.5.
(§3) The resulting sensorgrams were analyzed using the BIAevaluation 4.1 software using Langmuir 1:1 binding model to derive binding kinetics. Data was zero adjusted and the reference cell sensorgrams were subtracted. Sensorgrams were double referenced to no-analyte blank assay. Fitted parameters were considered not applicable if off-rate values were below the equipment's detection limit of kd: 1×10⁻⁶ 1/s.

Experiment [4] concerns the target T2, biotinylated native human ApoC3. The experiment can be described thus: SPR, IgG1 over biotinylated ApoC3 on SA chip. As to the method:
as §2, §3

For experiment [5], the target named is T1, native human ApoC3. The experiment can be described thus: SPR, ApoC3 over captured IgG1, pH 7.4. How it is done:
(§4) An inverted SPR assay was designed in which a test antibody was captured on an SPR chip, human ApoC3 protein was injected, and binding of ApoC3 to the antibody was measured. […] The immobilization was performed in accordance with the method provided by Biacore/GE using the NHS/EDC kit (Biacore AB, Cat.nr. BR-1000-50): after activation of the chip, a solution of 30 μg/ml of anti-human Fcγ antibody in 10 mM acetate buffer with pH of 5.0 was prepared and injected until the surface density reached approximately 10000 RU. The analytical cycle comprised the following steps:
(§5) The resulting sensorgrams were analyzed using the BIAevaluation 4.1 software using Langmuir 1:1 binding model to derive binding kinetics. Data was zero adjusted, the reference cell sensorgrams were subtracted and the no analyte blank assay was used for double referencing the sensorgrams corresponding to the analyte injections. The dissociation and association phase sensorgrams were fitted separately for the 4 different concentration curves. Sensorgrams were excluded from the fitting if maximum RU values reached were below the detection limit of the equipment (<5 RU), Biacore 3000 (Biacore AB).

Experiment [6] has as its target T2, biotinylated native human ApoC3. The experiment can be described thus: SPR, IgG1 over biotinylated ApoC3 on SA chip, pH 7.4. How it is done: as §2, §3
Experiment [7] deals with T1, native human ApoC3. The experiment can be described thus: SPR, ApoC3 over captured IgG1, pH 7.4; pH 7.4; ApoC3 600-50 nM over immobilized antibody. As to the method: as §4, §5
The target of experiment [8] is T1, native human ApoC3. The experiment can be described thus: SPR, ApoC3 over captured IgG1. How it is done:
as §4, §5

Experiment [9] addresses T1, native human ApoC3. The experiment can be described thus: SPR, ApoC3 over captured IgG1, pH 5.5. How it is done:
as §4, §5

T2 sequence (P02656 21-99): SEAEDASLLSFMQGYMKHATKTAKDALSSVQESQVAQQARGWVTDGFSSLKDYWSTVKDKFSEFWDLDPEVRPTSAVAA
T1 sequence (P02656 21-99): as above

B1: 5E5VH5VH12_VLWT human IgG1 (antibody, V domains shown)
VH: QLQLVESGGGLVQPGGSLRLSCAASGFTFGTYSMRWVRQVPRKALEWVSSIHTDGGGTAYRDSVKGRFTISRDNAKNTLYLQMNNLKPEDTAIYYCVIHGYSDWGQGTQVTVSS
VL: ATMLTQSPGSLSVVPGESASISCKTSQGLVHSDGKTYFYWFLQKPGQSPQQLIYQVSNRASGVPDRFTGSGSGTDFTLKISGVKAEDAGVYYCAQGTYYPHTFGSGTRLEIK
In experiment [1], B1 yielded a koff of 0.00316 s⁻¹ and a kon of 156000 M⁻¹ s⁻¹. In experiment [2], this molecule registered a koff of 0.000305 s⁻¹ and a kon of 61600 M⁻¹ s⁻¹.

B2: 5E5VH12_VL8 human IgG1 (antibody, V domains shown)
VH: QLQLVESGGGLVQPGGSLRLSCAASGFTFGTYSMRWVRQVPRKALEWVSSISTDGGGTAYRDSVKGRFTISRDNAKNTLYLQMNNLKPEDTAIYYCVIHGYSDWGQGTQVTVSS
VL: ATMLTQSPGSLSVVPGESASISCKTSQGLVHSDGKTYFYWFLQKPGQSPQQLIYQVSNRASGVPDRFTGSGSGTDFTLKISGVKAEDAGVYYCAHGTYYPHTFGSGTRLEIK
notes: Tested as human IgG1
As to B2, in experiment [1], the koff turned out to be 0.00165 s⁻¹ and the kon was found to be 188000 M⁻¹ s⁻¹. In experiment [2], this molecule registered a koff of 0.000163 s⁻¹ and an on-rate (kon) of 267000 M⁻¹ s⁻¹.

B3: 5E5VH5_VL8 human IgG1 (antibody, V domains shown)
VH: QLQLVESGGGLVQPGGSLRLSCAASGFTFGTYSMRWVRQVPRKALEWVSSIHTDGGGTAYRDSVKGRFTISRDNAKNTLYLQMNNLKPEDTAIYYCVIAGYSDWGQGTQVTVSS
VL: ATMLTQSPGSLSVVPGESASISCKTSQGLVHSDGKTYFYWFLQKPGQSPQQLIYQVSNRASGVPDRFTGSGSGTDFTLKISGVKAEDAGVYYCAHGTYYPHTFGSGTRLEIK
notes: Tested as human IgG1; the tested lot is not tied to them in words
As to B3, the Ka in experiment [3] is 8.74e+07 M⁻¹; in experiment [5], 3.35e+06 M⁻¹; in experiment [6], 1.03e+09 M⁻¹. Moreover, the off-rate constant (koff) in [3] worked out at 0.00242 s⁻¹; in experiment [1], 0.00242 s⁻¹; in experiment [5] it was 0.0127 s⁻¹; in [2] it was 0.000173 s⁻¹; in experiment [6], 0.000173 s⁻¹. Further, the kon in experiment [3] turned out to be 211000 M⁻¹ s⁻¹; in experiment [1], 211000 M⁻¹ s⁻¹; in experiment [5], 42700 M⁻¹ s⁻¹; in [2], 177000 M⁻¹ s⁻¹; in [6], 177000 M⁻¹ s⁻¹. The “KD pH5.5/KD pH7.4” value in experiment [4] turned out to be 11.7. Further, the affinity in [6], expressed as Kd, was 0.98 nM.

B4: 5E5VHWT_VL8 human IgG1 (antibody, V domains shown)
VH: QLQLVESGGGLVQPGGSLRLSCAASGFTFGTYSMRWVRQVPRKALEWVSSISTDGGGTAYRDSVKGRFTISRDNAKNTLYLQMNNLKPEDTAIYYCVIAGYSDWGQGTQVTVSS
VL: ATMLTQSPGSLSVVPGESASISCKTSQGLVHSDGKTYFYWFLQKPGQSPQQLIYQVSNRASGVPDRFTGSGSGTDFTLKISGVKAEDAGVYYCAHGTYYPHTFGSGTRLEIK
Consider B4, for which the koff in [1] stood at 4.06e-05 s⁻¹; in experiment [2], 2.84e-05 s⁻¹. Besides, the kon in [1] turned out to be 731000 M⁻¹ s⁻¹; in experiment [2] it was 782000 M⁻¹ s⁻¹.

B5: 5E5VH5_VLWT human IgG1 (antibody, V domains shown)
VH: QLQLVESGGGLVQPGGSLRLSCAASGFTFGTYSMRWVRQVPRKALEWVSSIHTDGGGTAYRDSVKGRFTISRDNAKNTLYLQMNNLKPEDTAIYYCVIAGYSDWGQGTQVTVSS
VL: ATMLTQSPGSLSVVPGESASISCKTSQGLVHSDGKTYFYWFLQKPGQSPQQLIYQVSNRASGVPDRFTGSGSGTDFTLKISGVKAEDAGVYYCAQGTYYPHTFGSGTRLEIK
For the molecule B5, the koff in experiment [1] was 0.000203 s⁻¹; in experiment [2] it was 3.77e-05 s⁻¹. For the same molecule, the values for the kon in experiment [1] and in experiment [2] were 155000 M⁻¹ s⁻¹ and 178000 M⁻¹ s⁻¹, respectively.

B6: mAb13 (antibody, IgG1, V domains shown)
VH: QLLESGGGLVQPGGSLRLSCAASGFTFSTYSMRWVRQVPGKGLEWVSSIHTEGGGTAYRDSVKGRFTISRDNSKNTLYLQMNSLRAEDTAVYYCVIAGYSDWGQGTLVTVSS
VL: DIVMTQSPLSLPVTPGEPASISCKTSQGLVHSDGKTYFYWYLQKPGQSPQLLIYQVSNRASGVPDRFSGSGSGTDFTLKISRVEAEDVGVYYCAHGTYYPHTFGQGTRLEIK
notes: Produced as full length IgG1 (kappa) in ExpiCHO-S cells; CDR graft into the closest human germline frameworks; also called humanized anti-ApoC3 antibody mAb13; variant 13
For the molecule B6, the results for the Ka in experiment [7], in [3] and in [6] were 998000 M⁻¹, 1.8e+08 M⁻¹ and 2.38e+08 M⁻¹, respectively. Further, the koff was 0.037 s⁻¹ in experiment [7], 0.00267 s⁻¹ in experiment [3] and 0.000461 s⁻¹ in experiment [6]. Further, the kon amounted to 37000 M⁻¹ s⁻¹ in experiment [7], 479000 M⁻¹ s⁻¹ in experiment [3] and 110000 M⁻¹ s⁻¹ in experiment [6]. Besides, in [4], the “KD pH5.5/KD pH7.4” value worked out at 1.33.

B7: mAb17 (antibody, IgG1, V domains shown)
VH: QLVESGGGLVQPGGSLRLSCAASGFTFSTYSMRWVRQAPGKGLEWVSSIHTEAGGTAYRDSVKGRFTISRDNAKNTLYLQMNNLRAEDTAVYYCVIAGYSDWGQGTLVTVSS
VL: DIVMTQSPLSLPVTPGEPASISCKTSQGLVHSGGKTYFYWFLQKPGQSPQQLIYQVSNRASGVPDRFTGSGSGTDFTLKISRVEAEDAGVYYCAQGTYYPHTFGQGTRLEIK
notes: Produced as full length IgG1 (kappa) in ExpiCHO-S cells; also called humanized anti-ApoC3 antibody mAb17
As to B7, in experiment [8], the “KD (nM) pH5.5/pH7.4” value worked out at 4.12. In experiment [3], this molecule had a Ka of 2.92e+09 M⁻¹, a Kd of 0.34 nM, a koff of 0.000276 s⁻¹ and a kon of 806000 M⁻¹ s⁻¹. Moreover, the “KD pH5.5/KD pH7.4” value in experiment [4] was determined as 7.37. In experiment [5], the Ka was 1.6e+07 M⁻¹, binding was characterised by a dissociation constant (Kd) of 62 nM, the koff turned out to be 0.00616 s⁻¹ and the kon was 98700 M⁻¹ s⁻¹. In [9], the Ka is 3.89e+06 M⁻¹, the koff is 0.0217 s⁻¹ and the kon was 84500 M⁻¹ s⁻¹. In experiment [6], this molecule gave a Ka of 2.15e+10 M⁻¹, a Kd of 0.05 nM, a koff of 2.33e-05 s⁻¹ and a kon of 503000 M⁻¹ s⁻¹.

B8: mAb19 (antibody, IgG1, V domains shown)
VH: QLVESGGGLVQPGGSLRLSCAASGFTFSTYSMRWVRQAPGKGLEWVSSIHTDAGGTAYRDSVKGRFTISRDNAKNTLYLQMNNLRPEDTAVYYCVIAGYSDWGQGTLVTVSS
VL: DIVMTQSPGSLSVTPGEPASISCKTSQGLVHSGGKTYFYWFLQKPGQSPQQLIYQVSNRASGVPDRFTGSGSGTDFTLKISGVEAEDAGVYYCAQGTYYPHTFGQGTRLEIK
notes: Produced as full length IgG1 (kappa) in ExpiCHO-S cells; also called humanized anti-ApoC3 antibody mAb19
For the molecule B8, the “KD (nM) pH5.5/pH7.4” value in experiment [8] was found to be 4.42. In experiment [3], the Ka is 2.4e+09 M⁻¹, binding was characterised by a dissociation constant (Kd) of 0.42 nM, the koff was 0.000296 s⁻¹ and the kon was 710000 M⁻¹ s⁻¹. The “KD pH5.5/KD pH7.4” value in experiment [4] is 9.21. In [5], this molecule gave a Ka of 2.82e+07 M⁻¹, a Kd of 36 nM, a koff of 0.00463 s⁻¹ and a kon of 130000 M⁻¹ s⁻¹. In experiment [9], this molecule came in with a Ka of 6.37e+06 M⁻¹, a koff of 0.0198 s⁻¹ and a kon of 127000 M⁻¹ s⁻¹. Moreover, in [6], the Ka amounted to 2.21e+10 M⁻¹, the Kd came out at 0.05 nM, the koff worked out at 2.9e-05 s⁻¹ and the kon worked out at 640000 M⁻¹ s⁻¹.

By koff is commonly meant a measure of how fast the partners let go of each other. Read a low koff as slow dissociation. As usually defined, the kon is the rate constant with which the complex forms. High values mean faster complex formation, low ones slower complex formation. Usually Kd stands for the concentration at which binding is half-saturated.
